This note sets out measurements from paper PMC11645250.

Where two headings read alike, the source gives them in different places.

In series [1] the target is IBDV VP3 D1–D2–D3 construct (residues 1–221) (infectious bursal disease virus (IBDV)). Briefly: cross-linking.
For series [2] the target is unchanged. Briefly: SAXS.
For series [3] the target is unchanged. Briefly: cross-linking. The source holds these as a separate data set.
Series [4] shares this target. Briefly: SEC-MALS. On the technique in general: SEC sorts molecules by how far they enter the pores of the column.
For series [5], the target named is IBDV VP3 N-terminal construct (residues 1–81, D1 domain) (infectious bursal disease virus (IBDV)). Briefly: cross-linking.
Series [6] has the same target. Briefly: SAXS.
The target is the same in series [7]. Briefly: SEC-MALS.
The target in series [8] is IBDV VP3 central domains construct (residues 89–221, D2–D3) (infectious bursal disease virus (IBDV)). Briefly: cross-linking.
In series [9] the target is T1, VP3 1-81 (D1) (Infectious bursal disease virus (Soroa …, UniProt Q9WI42 756-836)).
T1 sequence: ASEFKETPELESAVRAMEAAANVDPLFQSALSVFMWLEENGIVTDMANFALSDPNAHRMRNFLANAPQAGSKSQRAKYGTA
Briefly: EMSA.

Broadly, the stoichiometry N is the number of molecules, sites or subunits per partner or assembly.

In the case of “IBDV VP3 D1–D2–D3 construct (residues 1–221) (domain or fragment)”, the % of protein in dimers and higher MW species after BS3 cross-linking was 93.2% in [1] and 93.3% in [3]. The stoichiometry N in series [2] and in series [4] was 2 each time. This molecule yielded a % of total sample in the predominant (dimer) peak in series [4] of 98.8%.
For the molecule “IBDV VP3 N-terminal construct (residues 1–81, D1 domain) (domain or fragment)”, the % of the band in the dimeric form after BS3 cross-linking in [5] was found to be 96.9%. The stoichiometry N in series [6] and in series [7] was 2 each time.
As to “IBDV VP3 central domains construct (residues 89–221, D2–D3) (domain or fragment)”, the % dimerization/oligomerization after BS3 cross-linking in [8] was found to be 43.5%.

B1: 28 bp dsRNA (dsRNA)
RNA 1: AGAACCUGUUGAACAAAAGCCGAAUAAU
RNA 2: AUUAUUCGGCUUUUGUUCAACAGGUUCU
As for B1, the binding result in [9] is “no binding”.
